Source: the RNAGym collection of RNA variant scans (doi:10.1073/pnas.2313332121)

B1: TPR t1 (parent)
chain: GACCAAUCUGCCCUCAGAGCUCGAGAACAUCUUCGGAUGCAGAGGAGGCAGGCUUCGGUGGCGCGAUAGCGCCAACGUCCUCAACCUCCAAUGCAUCCCACCACAUGAUGAUGCCUGAAGAGCCUUGGUUUUUUG

Variants of: B1
Assay: polymerase ribozyme fitness, log enrichment relative to wild type (log ratio); higher = more active; in vitro selection for triplet polymerase activity
Procedure, shortened: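 Libraries of mutants in each subunit of a heterodimeric triplet polymerase ribozyme were generated by PCR and transcribed. In triplicate, each went through one in vitro selection round: annealing with biotinylated primer, partner subunit and triplets; frozen incubation at −7 °C; gel excision of extended constructs; streptavidin-bead capture; RT-PCR. Fitness, taken from Illumina sequencing of input and output libraries, is the logarithm of a genotype's enrichment over wild-type enrichment, averaged across replicates with inverse-variance weights. The logarithm is base 2, and genotypes needed ≥10 input reads and ≥1 read per output to be kept.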

| Variant | polymerase ribozyme fitness (log ratio) |
| --- | --- |
| GACCAAUCUGCCCUCAGAGCUCGAGAACAUCUUCGGAUGCAGAGGAGGCUGGCUUCGGUGGCGCGAUAGCGCCAACGUCCUCAACUUCCAAUUCAUCCCACCACAUGAUGACGCCUGAAGAGCCUUGGUUUUUUG | -1.3 |
| GACCAAUCUGCCCUCAGAGCUCGAGAACAUCUUCGGAUGCAGAGGAGGCUGGCUUCGGUGGCGCGAUAGCGCUAACGUCCUCAACCUCCAAUGCAUCCCACCACAUGAUGAUGCCUCAAGAGACUUGGUUUUUUG | -5.84 |
| GACCAAUCUGCCCUCAGAGCUCGAGAACAUCUUCGGAUGCAGAGGAGGCUGGCUUCGGUGGCGCGAUAGCGGCAACGUUCUCAACCUCCAAUGCAUCCCACCACAUGAUGAAGCCUGAAGAGCCUUGGUUUUUUG | -3.66 |
| GACCAAUCUGCCCUCAGAGCUCGAGAACAUCUUCGGAUGCAGAGGAGGCUGGAAUCGGUGGCGCGAUAGCGCCAACGUCCUCAACCUCCAAUUCAUCCCACCACUUGAUGAUGCCUGAAGAGCCUUGGUUUUUUG | -3.45 |
| GACCAAUCUGCCCUCAGAGCUCGAGAACAUCUUCGGAUGCAGAGGAGGCUGGCUUCGGUGGUGCGAUAGCGCCAACGUCCUCUACCUCCAAUGCAUCCCACCACAUGAUGAUGCCUGAAGAGCCUUGGUUUUAUG | -1.52 |
| GACCAAUCUGCCCUCAGAGCUCGAGAACAUCUUCGGAUGCAGAGGAGGCUGGCUUCGGUGGCGCGAUAGCGCUAACGUCCUCAACCACCAAUGCAUCCCACCACAUGAUGAUGCCUGAAGAGCCUUGGUUUUUUG | -0.904 |
| GACCAAUCUGCCCUCAGAGCUCGAGAACAUCUUCGGAUGCAGAGGAGGCUGGCUUCGGUGGCGCGAUAGCGCUAACGUCCUCAACCUCCAAUGCAUCCCACCACAUGAUGAUGCCUGAAGAGCCUUGGUUUUUUG | -0.956 |
| GACCAAUCUGCCCUCAGAGCUCGAGAACAUCUUCGGAUGCAGAGGAGGCGGGCUUCGGUGGCGCGAUAGCGCCAACGUCCUCAACCUCCAAUGCAUCCCACCACAUGAUGAUGCCUGAAGAGCCUUGGUGUUUUG | -0.32 |
| GACCAAUCUGCCCUCAGAGCUCGAGAACAUCUUCGGAUGCAGAGGAGGCGGGCUUCGGUGGCGCGAUAGCGCCAACGUCCUCAACCUCCAAUGCAUCCCACCACAUGAUGAUGCCUGAAGAGCCUUGGUCUUUUG | 0.163 |
| GACCAAUCUGCCCUCAGAGCUCGAGAACAUCUUCGGAUGCAGAGGAGGCUGGCUUGGGUGGCGCGAUAGCGCCAACGUCCUCAACCUCCAAUGCAUCCCACCACAUGAUGAUGCCUGAAGAGCCUUGGUUUUUUG | -1.76 |
| GACCAAUCUGCCCUCAGAGCUCGAGAACAUCUUCGGAUGCAGAGGAGGCUGGCUUUGGUGGCGCGAUAGCGCUAACGUCCUCCACCUCCAAUGCAUCCCACCACAUGAUGAUGCCUGAAGAGCCUUGGUUUUUUG | -1.69 |
| GACCAAUCUGCCCUCAGAGCUCGAGAACAUCUUCGGAUGCAGAGGAGGCUGGCUUCGGUGGCGCGAUAGCGCCAACGUCCUCAACCUUCAAUGCAUCCCACCACAUGAUGAUGCCUGAAGAGCCUUGGUUUUUUG | -1.71 |
| GACCAAUCUGCCCUCAGAGCUCGAGAACAUCUUCGGAUGCAGAGGAGGCUGGCUUCGGUGGCGAGAUAGCGCCAACGUCCUCAACCUCCAAUGCAUCCCCCCACAUGAUGGUGCCUGAAGAGCCUUGGUUUUUUG | -6.26 |
| GACCAAUCUGCCCUCAGAGCUCGAGAACAUCUUCGGAUGCAGAGGAGGCUGGCUUCGGUGGCGCGAUAGCGCCAACGUCCUCAACUUCCAAUGCAUCCCACCACAUGAUGAUGCCUGAAGAGCCUUGGUUUUUUG | -1.27 |
| GACCAAUCUGCCCUCAGAGCUCGAGAACAUCUUCGGAUGCAGAGGAGGCUGGCUUCGGUGGUGCGAUAGCGCCAACGUCCUCAACCUCCAAUGCAUCCCACCACAUGAUGAUGCCUGAAGAGCCUUGGUUUUGUG | -1.1 |
| GACCAAUCUGCCCUCAGAGCUCGAGAACAUCUUCGGAUGCAGAGGAGGCUGGCUUCGGUGGCGCGAUAGCGCCAACGUCCUCAACCUCCAAUGCAUCCCACCACAUGAUGAUGCCUGCAGGGCCUUGGAUUUUUG | -1.76 |
| GACCAAUCUGCCCUCAGAGCUCGAGAACAUCUUCGGAUGCAGAGGAGGCUGGCUUCGGUGGUGCGAUAGCGCCAACGUCCUCAACCUCCAAUGCAUCCCACCACAUGAUGAUGCCUGAAGAGCCUUGGUUUUUUG | -1.15 |
| GACCAAUCUGCCCUCAGAGCUCGAGAACAUCUUCGGAUGCAGAGGAGGCUGGCUUCGGUGGGGCGAUAGCGCCAACGUCCUCAACCUCCAAUGCAUCCCACCACAUGAUGAUGCCUGAAGAGCCUUGGUUUUUUG | -3.56 |
| GACCAAUCUGCCCUCAGAGCUCGAGAACAUCUUCGGAUGCAGAGGAGGCUGGCUUCGGUGGCGCGAUAGUGCCAACGUCCUCAACCUCCAAUGCAUCCCACCACAUGAUGAUGCCUGAAGAGCCUUGGUUUUUUG | -1.67 |
| GACCAAUCUGCCCUCAGAGCUCGAGAACAUCUUCGGAUGCAGAGGAGGCUGGCUUCGGUGGCGCGAUAGCGCCCACGUCCUCAGCCUCCAAUGCAUCCCACCACAUGAUGAAGCCUGAAGAGCCUUGGUUUUUUG | -4.89 |
| GACCAAUCUGCCCUCAGAGCUCGAGAACAUCUUCGGAUGCAGAGGAGGCUGGCUUCGGUGGCGCGAUAGCGCCAACGUCCUCAAGCUCAAAUGCAUCCCACCACAUGAUGAUGCCUGAAUAGCCUUGGUUUUUUG | -3.42 |
